{"source": "paper PMC6289583", "origin": "cited, not measured here", "key": {"ICAM-2 (Homo sapiens)": {"target": "ICAM-2 (Homo sapiens) (UniProt P13598)", "sequence (P13598 25-275)": "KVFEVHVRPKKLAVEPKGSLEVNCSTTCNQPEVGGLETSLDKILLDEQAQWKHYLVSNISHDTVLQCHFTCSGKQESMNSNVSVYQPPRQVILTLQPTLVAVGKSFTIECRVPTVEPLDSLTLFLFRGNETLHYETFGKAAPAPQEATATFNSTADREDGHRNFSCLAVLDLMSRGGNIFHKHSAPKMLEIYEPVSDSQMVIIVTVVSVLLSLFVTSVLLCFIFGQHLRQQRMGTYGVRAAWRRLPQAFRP"}, "EBP50 (Homo sapiens)": {"target": "EBP50 (Homo sapiens) (UniProt O14745)", "sequence (O14745 2-358)": "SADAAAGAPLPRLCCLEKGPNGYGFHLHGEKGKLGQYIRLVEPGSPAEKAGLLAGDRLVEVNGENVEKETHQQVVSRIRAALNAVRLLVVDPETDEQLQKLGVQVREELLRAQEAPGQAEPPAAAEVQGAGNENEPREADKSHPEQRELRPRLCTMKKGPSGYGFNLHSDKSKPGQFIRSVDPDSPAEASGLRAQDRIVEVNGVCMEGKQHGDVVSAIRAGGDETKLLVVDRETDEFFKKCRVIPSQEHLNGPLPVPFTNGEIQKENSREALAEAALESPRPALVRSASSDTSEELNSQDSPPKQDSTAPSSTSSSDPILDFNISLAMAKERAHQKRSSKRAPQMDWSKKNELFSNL", "assay": "SPR"}, "Moesin": {"target": "Moesin (UniProt P26038)", "sequence (P26038 2-577)": "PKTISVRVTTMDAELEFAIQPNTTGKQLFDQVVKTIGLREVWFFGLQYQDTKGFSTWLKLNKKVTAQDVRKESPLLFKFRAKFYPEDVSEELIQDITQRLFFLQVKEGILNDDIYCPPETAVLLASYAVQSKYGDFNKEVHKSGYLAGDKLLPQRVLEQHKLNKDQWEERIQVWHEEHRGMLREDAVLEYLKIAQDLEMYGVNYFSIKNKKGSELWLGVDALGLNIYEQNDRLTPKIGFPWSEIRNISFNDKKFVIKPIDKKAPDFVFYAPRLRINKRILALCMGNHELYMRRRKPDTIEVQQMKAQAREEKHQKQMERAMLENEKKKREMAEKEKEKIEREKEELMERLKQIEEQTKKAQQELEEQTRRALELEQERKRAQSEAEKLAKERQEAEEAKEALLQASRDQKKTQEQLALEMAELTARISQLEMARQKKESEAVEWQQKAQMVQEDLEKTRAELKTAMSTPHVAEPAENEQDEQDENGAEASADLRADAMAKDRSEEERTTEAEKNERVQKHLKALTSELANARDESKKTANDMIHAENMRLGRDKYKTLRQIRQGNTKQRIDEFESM"}}, "data": [{"substance": "Ezrin (from UniProt P15311)", "values": [{"measurement": "Kd", "setting": "ICAM-2 (Homo sapiens)", "value": 0.33, "unit": "µM"}, {"measurement": "Kd", "setting": "EBP50 (Homo sapiens)", "value": 0.058, "unit": "µM"}]}, {"substance": "CD44 cytoplasmic domain (from UniProt P16070)", "values": [{"measurement": "Kd", "setting": "Moesin", "value": 0.0093, "unit": "µM"}]}]}
